Assay results from IntAct's records for PubMed 12679340.

B1: Ornithine carbamoyltransferase (Saccharomyces cerevisiae), P05150 (parent)
chain: MSTTASTPSSLRHLISIKDLSDEEFRILVQRAQHFKNVFKANKTNDFQSNHLKLLGRTIALIFTKRSTRTRISTEGAATFFGAQPMFLGKEDIQLGVNESFYDTTKVVSSMVSCIFARVNKHEDILAFCKDSSVPIINSLCDKFHPLQAICDLLTIIENFNISLDEVNKGINSKLKMAWIGDANNVINDMCIACLKFGISVSISTPPGIEMDSDIVDEAKKVAERNGATFELTHDSLKASTNANILVTDTFVSMGEEFAKQAKLKQFKGFQINQELVSVADPNYKFMHCLPRHQEEVSDDVFYGEHSIVFEEAENRLYAAMSAIDIFVNNKGNFKDLK

Variants of: B1
Settings: with argi_yeast CAR1, P00812
argi_yeast CAR1, P00812, sequence (P00812 whole entry): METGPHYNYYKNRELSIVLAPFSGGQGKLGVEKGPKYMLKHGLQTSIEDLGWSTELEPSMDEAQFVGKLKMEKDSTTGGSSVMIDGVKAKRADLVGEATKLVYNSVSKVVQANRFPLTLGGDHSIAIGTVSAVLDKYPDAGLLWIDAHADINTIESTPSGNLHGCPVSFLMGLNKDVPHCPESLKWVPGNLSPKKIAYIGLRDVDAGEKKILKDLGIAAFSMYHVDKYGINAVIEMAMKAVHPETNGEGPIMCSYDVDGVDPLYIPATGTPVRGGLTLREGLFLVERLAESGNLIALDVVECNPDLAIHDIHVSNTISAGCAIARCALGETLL

| Variant | effect of a mutation on the interaction |
| --- | --- |
| MSTTASTPSSLRHLISIKDLSDEEFRILVQRAQHFKNVFKANKTNDFQSNHLKLLGRTIALIFTKRSTRTRISTEGAATFFGAQPMFLGKEDIQLGVNESFYDTTKVVSSMVSCIFARVNKHEDILAFCKDSSVPIINSLCDKFHPLQAICDLLTIIENFNISLDEVNKGINSKLKMAWIGNANNVINDMCIACLKFGISVSISTPPGIEMDSDIVDEAKKVAERNGATFELTHDSLKASTNANILVTDTFVSMGEEFAKQAKLKQFKGFQINQELVSVADPNYKFMHCLPRHQEEVSDDVFYGEHSIVFEEAENRLYAAMSAIDIFVNNKGNFKDLK [D182N] | decreasing interaction |
